The source of these data is the supplement of paper PMC12042874.

The data set in a line: amyloid nucleation score (Sup35N fusion, yeast selection) (log enrichment); library NNK3; higher = more nucleation; inactive = no reads after selection. In short, it runs like this: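 Using DiMSum, nucleation scores were taken as the log enrichment of output over input reads, centred on the mode score of non-aggregating sequences. The input and output reads came from Illumina sequencing of plasmid inserts, with sequences under 100 input reads excluded. The yeast were psi-negative, expressed Sup35N fused to peptides of 20 random codons, were induced with 100 μM copper sulfate for 24 hours, and were grown 7 days at 30°C on medium lacking adenine and uracil.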

± gives the uncertainty stated by the source.

Turning to GFFFSLFYWNHFRGMTRQRF, the amyloid nucleation score stood at 0.973 ± 0.2.
In the case of LYAQNLV it was “inactive”; in that of LYRPCLWSDWRT, “inactive”; in that of NIVLFGKRVNFFYLTNDVVK, 1.97 ± 0.067.
To KDCMVYWLRI belongs “inactive”; to IMGALLTYSRTTGRVNYRMW, “inactive”; to IAFLAMHLFVASWFPR, “inactive”.
In the case of YQGYRFNC it was “inactive”.
In the case of VVYTGTNGRLQDRA, the amyloid nucleation score result was “inactive”.
To DSFRHEGRVWLWYSSTTKRF belongs “inactive”; to WRRLEGSHA, “inactive”.
On to CPESCSN, for which the amyloid nucleation score entry was “inactive”.
RLSAPCCWYNTLIE displayed an amyloid nucleation score of 1.96 ± 0.099.
In the case of FCFSSVEKNWLQRVMFLRVS it was “inactive”; in that of WLVAEFQTYPMTQHLYVSMR, “inactive”.
EVHLSINEINLYVIEDEGSL gave an amyloid nucleation score of 0.013 ± 0.32.
To FVYWNLSAYVRILVVDGNGR belongs “inactive”; to MRSNSTVYGTFTRSNVLHIP, “inactive”; to AESIR, “inactive”.
In the case of QGFFRFSLVSAKRACKLDYS it was “inactive”; in that of SLRYGREIKNMRQNCIDPWC, “inactive”.
As for RSTSSENYFYWFKS, the amyloid nucleation score entry is “inactive”.
In the case of PKNFLSVETF it was “inactive”.
In the case of MNGIGNYLDTYMGSCHVEDM it was “inactive”; in that of SGLRASSSVMSCAYLTISWN, “inactive”.
Consider LRLQIEKTAKNMFEYKAG, for which the amyloid nucleation score result was “inactive”.
To TVYFNYRVWHTMARKQKLSS belongs “inactive”; to QKIVSPRSGGFASPRMRQKV, “inactive”.
In the case of NVMVISMMTSR it was “inactive”; in that of VGRHAYRC, “inactive”.
As to ASLTGNFYTGWRFLALATMC, the amyloid nucleation score result was “inactive”.
In the case of TFLNFSVIGVTSLGTDRAYD it was “inactive”; in that of GSWMCVMLRVFCSCSWLYCS, -0.018 ± 0.93.
In the case of CMRSESCVVPRNNKFFLLSG it was -0.361 ± 0.96.
To IEPIECTMA belongs “inactive”; to FTPDVRWLNVLNSHNGVIEV, “inactive”; to HRIVHDSVLKRVFDYFR, “inactive”.
Substance NLSVIMLVVCMLTINNIYMS returned an amyloid nucleation score of 1.29 ± 0.11.
To TVTVPG belongs “inactive”; to TKDRFFLKHTGRIMLGLRR, “inactive”.
To REPVRLQNKRLPRCQRREWC belongs “inactive”.
To SFESVVYYSWRFVAKFKFWT belongs “inactive”; to RRYPRTLYERVSCVS, “inactive”.
As to SDHLQ, the amyloid nucleation score result is “inactive”.
To DRILAYKTYLGNYLLVVLYN belongs “inactive”; to LNSTVSGKFMLL, 0.078 ± 0.66.
On to PIAFSIALPRVVCRQ, for which the amyloid nucleation score entry was “inactive”.
LSEMANDHEHVYSYRKAHYM showed an amyloid nucleation score of -0.626 ± 0.8.
Take RTLRRLTGNSILFRYWSNKG: the amyloid nucleation score result was “inactive”.
To TLHCSVYMCTTYGNTHLYVH belongs 2.2 ± 0.063.
As to RASMYG, the amyloid nucleation score entry was “inactive”.
In the case of VFYLCNFWGCWTCSIAVIVS it was 0.576 ± 0.17; in that of MYSNVDQFNI, -0.257 ± 0.47; in that of PGLIVF, “inactive”.
The substance RGGTASQVFMCFKLVFRSRY yielded an amyloid nucleation score of -0.14 ± 0.6.
To EIAVVRKVLYPYCRYVLICS belongs “inactive”.
In the case of TISSSLKRMWDIVFSLCNNI, the amyloid nucleation score result was “inactive”.
To INEWFGSKDFAETGHLEVRY belongs “inactive”; to LTNCRHSWWEDTTYSMWEVQ, “inactive”.
In the case of RVRRLT it was “inactive”; in that of HNLNIHYMISRVNAYTCTFI, 2.5 ± 0.074; in that of CRINEWLGIGNSVSSSDHMG, “inactive”.
In the case of LSMTGV it was “inactive”; in that of IRERGLYEMNPYWCRGRKSM, “inactive”.
Consider TSYVLWLSRLYFVANPSDYS, for which the amyloid nucleation score result is “inactive”.
ASCAWNGWTLIFLFYRCYFQ: the amyloid nucleation score result was “inactive”.
To GQWDYLLTQYKNIK belongs -1.01 ± 1.1; to FFNKGCMFCSREAVIVQIWG, 2.62 ± 0.082.
Regarding PMYVHRKDYKVVGSYMSTM, the amyloid nucleation score result was “inactive”.
In the case of CFIVQWMLTLMCVFANCILT, the amyloid nucleation score result was “inactive”.
In the case of RLLGTRSYTIWACYTCAVFM it was 2.15 ± 0.088.
In the case of HGIRYTCWRWECSNVGGSSS it was “inactive”; in that of VHRWGYQCSWVEQ, “inactive”.
Take RSNLIILSAHYRLYMDLRCA: the amyloid nucleation score entry is “inactive”.
To YSLRNNFLLVFSLVSDRPIG belongs 1.06 ± 0.12.
In the case of YQNILLAYYDWVVLYQ it was “inactive”; in that of VVQRMG, -0.048 ± 1.1.
To DGNLPPNWLKGACTFRWTFI belongs “inactive”.
As to ITNVRSVRFLYSSTYYHIVL, the amyloid nucleation score turned out to be 1.83 ± 0.11.
To YYKRYGGYPGNQHMSVGHRF belongs “inactive”; to IRSCIIRSFTYMLGLH, “inactive”; to VSNLLIKVTRHASYDQSS, “inactive”.
In the case of RRLLSKGVKIVRLISDEVYC it was “inactive”.
Consider NMPYSCKRLWRDKCQMWEYR, for which the amyloid nucleation score result is “inactive”.
In the case of SFDVLSRV it was “inactive”; in that of FDLWFIRIGV, -0.221 ± 0.46.
In the case of CWDFKGFMMESLTNRSPYAS it was “inactive”; in that of YFKRCQGNEQFSRNRNANGA, “inactive”.
As to SSDNIVSGWWALSNKSATFV, the amyloid nucleation score result is “inactive”.
To LFNYLFLVP belongs “inactive”; to MFIFGGISFVMVSYLNRAHT, 1.13 ± 0.1.
In the case of ERRIKDLTECSNR it was “inactive”; in that of LFSQAHGYRDVLGGFRVFWV, “inactive”.
To KIQSMISTITMVFTKLLSHL belongs -0.546 ± 0.7.
In the case of HCGWMAFFISLAPQFVYVLI, the amyloid nucleation score result is “inactive”.
As for HGSYLMRILR, the amyloid nucleation score result was “inactive”.
In the case of FRDCMVINDMVVWDFCTSCA it was “inactive”; in that of NQCIAYYGISRLWQM, “inactive”; in that of SRSLWTLNIVFRHDCYTGKL, -0.05 ± 0.57.
Turning to SWYDHWSLIQDGLKRVNGG, the amyloid nucleation score result was “inactive”.
In the case of LASLTRLLDFMMSVENTYSA it was “inactive”.
HWTGVAELLAGYCV: the amyloid nucleation score result is “inactive”.
In turn, NHGATLFECSYCNCSLAFR came in with an amyloid nucleation score of 2.83 ± 0.081.
To KFLYGGFCGWMSAVLNVLYP belongs -0.364 ± 0.82; to DASSDRVSVYSAYK, “inactive”.
In the case of LPTIQILRQNTVPIGVHHKF it was “inactive”; in that of NRLYVKAELCSDAFRIVVAR, “inactive”.
To VFTDLCTYKTCTYVIPCTAE belongs “inactive”; to LIFGYPVGKFTMMGLTSMWS, “inactive”.
In the case of FLLVYWLVLVFPIVGNLMPE, the amyloid nucleation score result is “inactive”.
Take SIPLLTQMWTVNGNRRWQTA: the amyloid nucleation score entry was “inactive”.
As for LRKGVRLLFSHHVIIK, the amyloid nucleation score entry is “inactive”.
In the case of NLLNSFIFSRLRRVEGGMFG it was “inactive”.
In the case of THRSRKSDPNRQSFIKCGHS it was “inactive”.
Regarding KAVVLGEWTRSFCSLDFNI, the amyloid nucleation score result is “inactive”.
In the case of SVNFELYDMITRC it was “inactive”.
To VTAFCWGLQRIVGIECSMLE belongs “inactive”; to YRLPHS, “inactive”.
Substance ICGNPLVLLMNNSVRLG came in with an amyloid nucleation score of 0.092 ± 0.64.
To PDDSRRNPRFG belongs “inactive”; to MGHSDNGEDTSTWLCDRRVV, “inactive”; to GCFSSSESTIWGGAVDAKVS, “inactive”.
To VNDPEAR belongs -0.391 ± 1.2; to TGSFIIRISSSRTMLW, “inactive”; to LKVVSKVLYNSSYPVRYVLR, “inactive”.
In the case of WDFFIGLLLYSIL it was “inactive”; in that of SPDTVPIGGSSGTNVYLCMH, “inactive”; in that of AANPFFTIYHLVRSYNVCRW, “inactive”.
Regarding KLVATVFTSRCATVWLVQGF, the amyloid nucleation score result is “inactive”.
In the case of WIFMSYWCVDLMPQLLHECW it was “inactive”.
To CYFSIYYYSYLLFRMLGVKW belongs “inactive”.
